Results on 13 molecules are retold here after patent publication US20130039916A1 (Merck Sharp & Dohme, published 2013).

Test [1] concerns the target T1, human IL-23 (form not stated) (human, UniProt P29460 23-328).
T1 sequence 1: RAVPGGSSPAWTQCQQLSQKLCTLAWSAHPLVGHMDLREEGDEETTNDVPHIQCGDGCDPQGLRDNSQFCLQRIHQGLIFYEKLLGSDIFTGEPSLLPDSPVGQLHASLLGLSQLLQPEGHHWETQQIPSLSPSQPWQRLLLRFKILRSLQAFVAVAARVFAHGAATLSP
T1 sequence 2: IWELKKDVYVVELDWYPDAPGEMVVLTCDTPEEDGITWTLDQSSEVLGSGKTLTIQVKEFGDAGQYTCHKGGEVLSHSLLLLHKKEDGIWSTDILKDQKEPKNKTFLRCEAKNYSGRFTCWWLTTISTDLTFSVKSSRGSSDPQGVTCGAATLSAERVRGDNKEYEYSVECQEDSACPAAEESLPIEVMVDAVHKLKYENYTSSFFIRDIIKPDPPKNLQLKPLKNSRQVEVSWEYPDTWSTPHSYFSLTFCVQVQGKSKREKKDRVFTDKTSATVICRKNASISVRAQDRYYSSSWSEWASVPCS
Description: cell-based or functional assay.

The target in test [2] is T2, "Non-linked" human IL-23 (human p40 coexpressed in 293T cells with human p19:FLAG-tag peptide) (human, UniProt P29460 23-328).
T2 sequence 1: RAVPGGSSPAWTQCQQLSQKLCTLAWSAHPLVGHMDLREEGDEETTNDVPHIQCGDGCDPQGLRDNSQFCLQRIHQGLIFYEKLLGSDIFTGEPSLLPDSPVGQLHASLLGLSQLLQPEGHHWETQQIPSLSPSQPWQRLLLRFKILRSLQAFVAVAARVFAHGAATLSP
T2 sequence 2: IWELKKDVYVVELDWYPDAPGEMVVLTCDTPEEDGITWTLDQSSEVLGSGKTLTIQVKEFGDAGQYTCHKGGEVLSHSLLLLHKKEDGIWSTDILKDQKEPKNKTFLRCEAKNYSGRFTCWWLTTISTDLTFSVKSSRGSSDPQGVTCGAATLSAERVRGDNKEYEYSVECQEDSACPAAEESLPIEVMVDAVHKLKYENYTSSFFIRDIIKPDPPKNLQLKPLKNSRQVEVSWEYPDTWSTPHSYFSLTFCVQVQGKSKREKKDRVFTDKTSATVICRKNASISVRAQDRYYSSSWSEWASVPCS
Description: cell-based or functional assay.

B1: mouse anti-human IL-23p19 antibody 17G8 (antibody, V domains shown)
VH: QAQLQQSGSELARPGASVKLSCKASGYTFTSYGIKWVKQRTGQGLEWIGEIFPRSGQTIYNENFKGKATLTADKSSSTAYMELRSLTSEDSAVYFCAANWDLDYWGQGTILTVSS
VL: DIMMTQSPATLSVTPGDRVSLSCRASQSISDYLHWYRQKSHESPRLLIKYASQSISGIPSRFSGSGSGSDFTLSINSVEPEDVGIYYCQNGHSFPYTFGGGTKLEIKR
As for B1, the “Splenocyte assay IC50 (IL-17 production by mouse splenocytes)” value (from here on “Splenocyte assay IC50”) in test [1] is 0.018 nM. For the same molecule, the “IC50 (pM), blocking of Ba/F3 cell proliferation” value (“IC50 (pM), blocking” below) in test [2] was 3 pM.

B2: mouse anti-human IL-23p19 antibody 2C6 (antibody, V domains shown)
VH: EVQLQQSGPELVKPGASVKMSCKASGYTFTRYLIHWVKQKPGQGLEWIGYVNPYNDGTNYNEKFRGKATLTSDKSSSTAYMELSSLTSEDSAVYYCTSNWDLNYWGQGTTLTVSS
VL: DIVMTQSPATLSVTPGDRVSLSCRASQSISDYLYWYQQKSHESPRLLIKYASQSISGIPSRFSGSGSGSDFTLSINSVEPEDVGVYFCQNGHSFPFTFGSGTKLEIKR
B2: the “Splenocyte assay IC50” value in test [1] turned out to be 0.037 nM. In addition, in test [2], the “IC50 (pM), blocking” value came out at 11 pM.

B3: mouse anti-human IL-23p19 antibody 20H7 (antibody, V domains shown)
VH: QAQLQQSGGELARPGASVKLSCKASGYTFTNYGIKWVKQRTGQGLEWIGEIFPRSGQTIYNEKFKGKATLTADKSSSTAYMELRSLTFEDSAVYFCAANWDLDYWGQGTILTVSS
VL: DIMMTQSPATLSVTPGDRVSLSCRASQSISDYLHWYRQKSHESPRLLIKYASQSISGIPSRFSGSGSGSDFTLSINSVEPEDVGVYFCQNGHSFPYTFGGGTKLEIKR
In the case of B3, the “Splenocyte assay IC50” value in test [1] came out at 0.033 nM. For the same molecule, the “IC50 (pM), blocking” value in test [2] was 3 pM.

B4: mouse anti-human IL-23p19 antibody 2G12 (antibody, V domains shown)
VH: EVQLQQSGPELVKPGASVKMSCKASGYTFTCCILHWVKQKPGQGLEWIGYINPYNDGTKYNEKFKGKATLTSDKSSRTAYMELSSLTSEDSAVYYCARRWDEAYWGQGTLVTVSA
VL: DIVMTQSPATLSVTPGDRVSLSCRASQSISAYLHWYQQKSHESPRLLIKYASQSISGIPSRFSGSGSGSDFTLSINSVEPEDVGIYYCQNGHSFPFTFGSGTKLEIKR
On to B4, for which the “Splenocyte assay IC50” value in test [1] is 0.106 nM. Besides, the “IC50 (pM), blocking” value in test [2] turned out to be 183 pM.

B5: mouse anti-human IL-23p19 antibody 18E1 (antibody, V domains shown)
VH: EVQLQQSGPELVKPGASVKMSCKASGNTFTRYVMNWVKQKPGQGLEWIGYINPYNDGTNYNEKFKGKATLTSDKSSTTAYMELSSLTSEDSAVYYCVHNWDLDYWGQGTTLTVSS
VL: DIVMTQSPATLSVTPGDRVSLSCRASQSISHYLYWYQQKSHESPRLLIKYASQSISGIPSRFSGSGSGSDFTLSINSVEPEDVGMYYCQNGHSFPYTFGGGTKLEIKR
Turning to B5, the “Splenocyte assay IC50” value in test [1] amounted to 0.092 nM. Further, the “IC50 (pM), blocking” value in test [2] came to 48 pM.

B6: mouse anti-human IL-23p19 antibody 20A4 (antibody, V domains shown)
VH: QAQLQQSGGELARPGASVKLSCKASGYTFTSYGIKWVKQGTGQGLEWIGEIFPRSGQTYYNEKFKGKATLTADKSSSTAYMELRSLTSEDSAVYFCASNWDLDYWGQGTILTVSS
VL: DIVMTQSPATLSVTPGDRVSLSCRASQSISDFLHWYRQKSHESPRLLIKYVSQSISGIPSRFSGSGSGSDFTLSINSVDPEDVGVYYCQNGHSFPYTFGGGTKLEIKR
Take B6: in test [1], the “Splenocyte assay IC50” value was found to be 0.024 nM. For the same molecule, in test [2], the “IC50 (pM), blocking” value came out at 5 pM.

B7: mouse anti-human IL-23p19 antibody 15G2 (antibody, V domains shown)
VH: EVQLQQSGPELVKPGASVKMSCKASGYTFTNYLMHWVKQKPGQGLEWIGYINPYNDGTNYNEKFKGKATLTSDKSSSTAYMELSSLTSEDSAIYFCTSNWDLDYWGQGTTLTVSS
VL: DIVMTQSPATLSVTPGDRVSLSCRASQSISDYLHWYQQKSHESPRLLIKYASQSISGIPSRFSGSGSGSDFILNINSVEPEDVGVYYCQNGHSFPYTFGGGTKLEIKR
In the case of B7, in test [1], the “Splenocyte assay IC50” value came out at 0.095 nM. For the same molecule, the “IC50 (pM), blocking” value in test [2] was 133 pM.

B8: mouse anti-human IL-23p19 antibody 3C4 (antibody, V domains shown)
VH: QVQLQQSGGELARPGASVKLSCKASGYTFTSYGIKWVKQRFGQGLEWIGEIFPRGGNTYYNEKFKGKATLTADKSSSTAYMELRSLTSEDSAVYFCTANWDLDYWGQGTTLTVSS
VL: DIVMTQSPATLSVTPGDRVSLSCRASQSISDYLHWYQQKSHESPRLLIKYASQSISGIPSRFSGSGSGSDFTLSINSVESEDVGVYYCQNGHSFPFTFGSGTKLKIKR
For the molecule B8, the “Splenocyte assay IC50” value in test [1] came to 0.014 nM. Also, the “IC50 (pM), blocking” value in test [2] came out at 12 pM.

B9: mouse anti-human IL-23p19 antibody 1D6 (antibody, V domains shown)
VH: EVQLQQSGPDLVKPGASVKMSCKASGYTFTAYLIHWVKRSHGKSLDWIGYINPNDGVTSYNQKFKGKATLTVNKSSGTAYMELRSLTSEDAAVYYCTLNWDLDYWGQGTTLTVSS
VL: DIVMTQSPATLSVTPGDRVSLSCRASQSISDYLHWYQQKSHESPRLLIKYASQSISGIPSRFSGSGSGSDFTLSITNVEPEDVGIYYCQNGHSFPFTFGSGTKLEIKR
For the molecule B9, the “Splenocyte assay IC50” value in test [1] came out at 0.027 nM. For the same molecule, in test [2], the “IC50 (pM), blocking” value was 16 pM.

B10: mouse anti-human IL-23p19 antibody 14A3 (antibody, V domains shown)
VH: EVILVESGGGFVKPGGSLKLSCAASGFTFSNYGMSWVRQTPDKGLEWVATISTGGRYIYYSDTVKGRFTISRDNAKSTLYLKMSSLRSEDTAVHFCARHEGDRYYGWYFDVWGAGTTVTVSS
VL: DIVLTQSPASLAVSLGQRATISCKASQSVDYDGESYMNWYQQKPGQPPKLLIYTSSSLASGIPARFSGSGSGTNFTLNIHPVEEEDAATYCCQQGNEDLFTFGSGTKLEIKR
Turning to B10, the “Splenocyte assay IC50” value in test [1] came to 0.053 nM. In test [2], the “IC50 (pM), blocking” value amounted to 135 pM.

B11: mouse anti-human IL-23p19 antibody 12C11 (antibody, V domains shown)
VH: EVMLVESGGGLVKPGGSLKLSCAASGFTFSNYGMSWVRQSPERGLEWVATISTGGRYTFYSDTVKGRFTISRDNARNTLYLKMSSLISEDTAVHYCARHEGDTYYGWYFDVWGAGTTVTVSS
VL: DIVLTQSPASLAVSLGQRATISCKASHSVDYDVDSFMNWYQQKPGQPPKLLIFASSSLESGIPARFSGSGSGTNFILNIHPVEEEDAATYYCQQGNEDLFTFGSGTKLEIKR
For the molecule B11, the “Splenocyte assay IC50” value in test [1] was determined as 0.079 nM. Besides, the “IC50 (pM), blocking” value in test [2] came to 57 pM.

B12: mouse anti-human IL-23p19 antibody 16F7 (antibody, V domains shown)
VH: EVQLVESGGDLVKPGGSLKLSCAASGFIFNSYGMSWVRQTPDKRLEWVATISSGGRNTYYPDSVKGRFTISRDNAKNTLYLQMSSLKSEDTAMYYCARQGGYEGYVDVWGIGTTVTVSS
VL: DIVMTQSHRFMSTSVGDRVSITCKASQDVSSAVAWYQQKPGQSPNLLIYSASFRNTGVPDRFTGSGSGTDFTFTISGVQAEDLAVYYCQQHHSTPLTFGAGTKLELKR
With B12, in test [1], the “Splenocyte assay IC50” value amounted to 0.155 nM. Besides, the “IC50 (pM), blocking” value in test [2] came out at 141 pM.

B13: mouse anti-human IL-23p19 antibody 8E9 (antibody, V domains shown)
VH: EVQLQQSGPELVKPGASVKMSCKASGYTFTAYLIHWVKQSHGKSLEWIGYINPNNGGTNYNQKFKDKATLTVNKSSATAYMELRSLTSEDSAVFYCSSNWDLDYWGRGTTLTVSS
VL: DIVMTQSPATLSVTPGDRVSLSCRASQSIGDYLHWYQQKLHESPRLLIKYASRSISGIPSRFSGSGSGSYFTLSINSVEAEDVGVYFCQNGHSFPFTFGSGTKLEIKR
As for B13, the “Splenocyte assay IC50” value in test [1] is 0.034 nM. For the same molecule, the “IC50 (pM), blocking” value in test [2] was found to be 8 pM.
